Data set [1] concerns the target T1, CytR DBD (Escherichia coli, UniProt P0ACN7 1-67).
T1 sequence: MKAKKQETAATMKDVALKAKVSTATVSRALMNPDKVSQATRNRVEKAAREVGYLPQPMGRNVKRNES
Briefly: NMR.

Data set [2] addresses T1, CytR DBD. Briefly: fluorescence anisotropy. In general terms: Fluorescence polarisation rises when a labelled molecule tumbles more slowly, as on binding a larger partner.
The target in data set [3] is T1, CytR DBD. As to the kind of experiment: fluorescence anisotropy. The source holds these as a separate data set.
Data set [4] has as its target T1, CytR DBD. Briefly: fluorescence anisotropy. The source holds these as a separate data set.

Where two headings read alike, the source gives them in different places.

Data on four molecules can be found in doi:10.1101/2021.02.28.433298.

B1: udp full-site operator (CytO) (dsDNA)
DNA 1: GTAAATTTATGCAACGCATTTGCGTCATGGTG
DNA 2: CACCATGACGCAAATGCGTTGCATAAATTTAC
As to B1, the binding result with CytR DBD [1] was “binds”.

B2: udp left half-site (dsDNA)
DNA 1: ATTTATGCAACGCA
DNA 2: TGCGTTGCATAAAT
By Kd is commonly meant the free concentration of one partner at which half of the binding sites on the other are occupied at equilibrium, for simple one-to-one binding. With B2, the affinity with CytR DBD [2], expressed as Kd, was 9.6 ± 1.8 µM.

B3: nonspecific 30 bp (dsDNA)
DNA 1: GTACAGAACATGTCTAAGCATGCTGGGGAC
DNA 2: GTCCCCAGCATGCTTAGACATGTTCTGTAC
As to B3, the dissociation constant Kd with CytR DBD [3] was 1.81 µM.

B4: nonspecific 14 bp (dsDNA)
DNA 1: AGCATGCTGGGGAC
DNA 2: GTCCCCAGCATGCT
In the data set with CytR DBD [4], B4 came in with a Kd of 5.7 µM.
